Patent US4478746A, “Glycosylated insulin derivatives” (priority 1984, dated 1984)

What was measured:
[1] = Bulk aggregation study (stirred aqueous solutions, aggregation visually observed); format: physicochemical; conditions: aqueous solution 0.1 mg/ml insulin, stirred at 1555 rpm until aggregation visually observed or up to two weeks
Experimental: (§1) Bulk aggregation studies with free insulin compared with glycosylated insulins were carried out by two methods. In a bulk aggregation study, various aqueous insulin and glycosylated insulin solutions containing 0.1 mg/ml of insulin were stirred at 1555 rpm until aggregation was visually observed or up to two weeks. In a second test, solutions containing the same insulin concentration were deposited on polyurethane (Biomer) and microscopically observed for aggregation.

[2] = Aggregation test on polyurethane (Biomer), microscopically observed; format: physicochemical; conditions: 0.1 mg/ml insulin solution deposited on polyurethane (Biomer)
Experimental: as §1

blood sugar level = assay: Blood sugar depression (BSD) test; format: in vivo; conditions: rats fasted twenty hours, 1 mg/kg intraperitoneal, 20 minutes after injection; control (baseline) 64.62 ± 0.61
Experimental: The bioactivity of the glycosated insulins described herein was determined by a blood sugar depression test and compared to commercial insulin preparations and controls. In this test, replicates of standard laboratory rats were fasted for twenty hours. After measuring baseline blood sugar levels, a 1 mg/kg dose of either free or glycosylated insulin was injected via an intraperitoneal route. The blood sugar level in each rat was measured colormetrically 20 minutes after the injection.

Row | Substance | Time required for aggregation, Bulk [1] | Time required for aggregation, Polyurethane [2] | Blood Sugar Concentration after 20 min. IP. injection (± S.E.M.) (blood sugar level)
1 | insulin [Free Insulin, reference compound] | 2 to 3 days | 1 to 2 days | –
2 | glucosamidoglutaryl insulin | – | – | 45.92 ± 3.30 mg/dL
3 | p-α-D-glucopyranosyloxy)-phenyl-N-glutaramyl insulin | – | – | 40.40 ± 2.53 mg/dL
4 | p-(α-D-glucopyranosyloxy)-phenyl-thiocarbamoyl Insulin | 2 weeks | 8 days | 44.67 ± 2.21 mg/dL
5 | p-(α-D-glucopyranosyloxy)-phenyl-N-succinamyl insulin | 2 weeks | 2 weeks | 40.87 ± 1.32 mg/dL
6 | SIGMA INS (21F-0375): commercial insulin preparation (Sigma) used as comparison | – | – | 32.66 ± 1.10 mg/dL
7 | p-(α-D-mannopyranosyloxy)-phenyl-N-succinamyl insulin | 2 weeks | 2 weeks | 44.80 ± 2.37 mg/dL
8 | p-(α-D-mannopyranosyloxy)-phenyl-N-glutaramyl insulin | – | – | 40.60 ± 0.80 mg/dL
9 | Glucosamidosuccinyl insulin | – | – | 37.80 ± 1.13 mg/dL
